Experimental data taken from publication PMC10184318, “The fission yeast cytokinetic ring component Fic1 promotes septum formation” (Biology Open, 2023).

Molecular target: T1, Fic1-MBP (S. pombe, UniProt O94701 1-272)
T1 construct: Fic1 of S. pombe; The printed name puts MBP after Fic1; source: E. coli, purified (standard biochemistry techniques)
T1 sequence (looked up): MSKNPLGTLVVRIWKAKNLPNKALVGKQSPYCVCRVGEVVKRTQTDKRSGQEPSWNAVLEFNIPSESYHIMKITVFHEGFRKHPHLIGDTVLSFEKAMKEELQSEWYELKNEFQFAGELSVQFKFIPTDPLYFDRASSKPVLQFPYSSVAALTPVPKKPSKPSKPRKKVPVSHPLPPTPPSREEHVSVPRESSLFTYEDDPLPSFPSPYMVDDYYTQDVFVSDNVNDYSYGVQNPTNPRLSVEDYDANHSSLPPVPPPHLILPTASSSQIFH
Experiment: pull-down; in vitro binding assay with recombinant proteins, one bead-bound and one soluble; 20 mM Tris pH 7.4, 150 mM NaCl; 4°C, 1 h; three washes; SDS-PAGE and Coomassie staining
Conditions: both partners purified

binding result: binds
B1: Cyk3-SH3-GST (aa1-66) (domain or fragment, S. pombe, UniProt O14302 1-66, looked up)
chain: MSIPKQLPCMVRALYAWPGEREGDLKFTEGDLIECLSIGDGKWWIGRHINTNTQGIFPSNFVHCLD
notes: Cyk3 of S. pombe, SH3 domain, residues 1-66; The printed name puts GST after the SH3 domain (Cyk3-SH3-GST, against GST-Cdc15-SH3), which hints at a C-terminal GST; also called Cyk3's SH3 domain; source: E. coli, purified (standard biochemistry techniques)
